In IntAct's records for PubMed 23976881:

B1: Heterogeneous nuclear ribonucleoprotein L (Homo sapiens), P14866-1 (parent)
chain: MSRRLLPRAEKRRRRLEQRQQPDEQRRRSGAMVKMAAAGGGGGGGRYYGGGSEGGRAPKRLKTDNAGDQHGGGGGGGGGAGAAGGGGGGENYDDPHKTPASPVVHIRGLIDGVVEADLVEALQEFGPISYVVVMPKKRQALVEFEDVLGACNAVNYAADNQIYIAGHPAFVNYSTSQKISRPGDSDDSRSVNSVLLFTILNPIYSITTDVLYTICNPCGPVQRIVIFRKNGVQAMVEFDSVQSAQRAKASLNGADIYSGCCTLKIEYAKPTRLNVFKNDQDTWDYTNPNLSGQGDPGSNPNKRQRQPPLLGDHPAEYGGPHGGYHSHYHDEGYGPPPPHYEGRRMGPPVGGHRRGPSRYGPQYGHPPPPPPPPEYGPHADSPVLMVYGLDQSKMNCDRVFNVFCLYGNVEKVKFMKSKPGAAMVEMADGYAVDRAITHLNNNFMFGQKLNVCVSKQPAIMPGQSYGLEDGSCSYKDFSESRNNRFSTPEQAAKNRIQHPSNVLHFFNAPLEVTEENFFEICDELGVKRPSSVKVFSGKSERSSSGLLEWESKSDALETLGFLNHYQMKNPNGPYPYTLKLCFSTAQHAS

Variants of: B1
Settings: with roa2_human HNRNPA2B1, P22626
Sequence of roa2_human HNRNPA2B1, P22626 (P22626 whole entry): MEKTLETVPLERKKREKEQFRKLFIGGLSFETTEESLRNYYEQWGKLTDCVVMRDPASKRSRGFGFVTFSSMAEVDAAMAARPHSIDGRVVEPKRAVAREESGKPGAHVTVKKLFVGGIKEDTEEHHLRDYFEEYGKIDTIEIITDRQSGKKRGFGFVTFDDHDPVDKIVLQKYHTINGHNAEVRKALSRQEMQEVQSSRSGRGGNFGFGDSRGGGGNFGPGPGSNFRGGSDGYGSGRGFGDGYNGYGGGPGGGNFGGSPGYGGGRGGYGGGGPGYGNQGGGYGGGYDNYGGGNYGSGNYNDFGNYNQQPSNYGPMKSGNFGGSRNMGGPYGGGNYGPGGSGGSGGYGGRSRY

effect of a mutation on the interaction | Variant
increasing interaction strength | Y359D
